Measured values: US20220233650A1

Molecular target: recombinant Factor VIII Fc fusion protein (rFVIIIFc) (human) [IgG part: P0DOX5]
Assay: cell-based or functional assay

von Willebrand Factor (VWF) (from UniProt P04275 764-2813)
percent of cells characterized as osteoclasts at day 7 after rFVIIIFc together with VWF (14.2% with rFVIIIFc alone): 45.7%
